From IntAct's records for PubMed 11027267 come the findings set out here.

B1: KRR1 small subunit processome component (Saccharomyces cerevisiae), P25586 (parent)
chain: MVSTHNRDKPWDTDDIDKWKIEEFKEEDNASGQPFAEESSFMTLFPKYRESYLKTIWNDVTRALDKHNIACVLDLVEGSMTVKTTRKTYDPAIILKARDLIKLLARSVPFPQAVKILQDDMACDVIKIGNFVTNKERFVKRRQRLVGPNGNTLKALELLTKCYILVQGNTVSAMGPFKGLKEVRRVVEDCMKNIHPIYHIKELMIKRELAKRPELANEDWSRFLPMFKKRNVARKKPKKIRNVEKKVYTPFPPAQLPRKVDLEIESGEYFLSKREKQMKKLNEQKEKQMEREIERQEERAKDFIAPEEEAYKPNQN
partner: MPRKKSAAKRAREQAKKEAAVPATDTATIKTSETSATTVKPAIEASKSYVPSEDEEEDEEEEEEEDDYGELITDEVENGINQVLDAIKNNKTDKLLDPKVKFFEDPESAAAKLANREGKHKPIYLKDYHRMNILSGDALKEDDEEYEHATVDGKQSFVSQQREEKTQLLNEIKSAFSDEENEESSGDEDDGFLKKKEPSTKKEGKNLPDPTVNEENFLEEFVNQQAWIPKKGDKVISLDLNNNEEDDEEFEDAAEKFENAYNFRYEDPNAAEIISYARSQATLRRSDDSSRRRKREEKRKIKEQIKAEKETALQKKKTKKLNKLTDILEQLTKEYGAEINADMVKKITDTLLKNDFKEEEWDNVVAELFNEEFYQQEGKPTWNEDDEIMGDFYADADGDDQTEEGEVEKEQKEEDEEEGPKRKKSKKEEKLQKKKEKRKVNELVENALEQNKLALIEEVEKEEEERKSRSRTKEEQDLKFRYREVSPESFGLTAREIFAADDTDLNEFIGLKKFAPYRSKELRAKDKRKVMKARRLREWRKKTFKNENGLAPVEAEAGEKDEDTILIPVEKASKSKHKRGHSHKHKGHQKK

The variants in the assay derive from B1. As to conditions: with kri1_yeast KRI1, P42846.
For the variant K20E;K66N;C162R;D261A, the “effect of a mutation on the interaction” value is given as “decreasing interaction”. In the case of F45L;L95S;R207G it was “decreasing interaction”.
